Experimental data reported in the supplement of paper PMC10567573.

B1: IMPA1 (parent)
chain: FIGEESVAAGEKSILTDNPTWIID
B2: RHOBTB3 (parent)
chain: KVVEAHKIVLCAVSHVFMLLFNVK

Variants of: B1
Assay: protein stability index of a GFP-peptide fusion (GPS, HEK-293T) (PSI 1-6); higher = more stable
Settings: c terminus: a fixed tail appended
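Also: lentivirally expressed fusions sorted by FACS into six bins by GFP to DsRed ratio, PSI derived from sequencing read proportions per bin multiplied by bin number.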

Protein stability index, by site and new letter:
G3: H 1.86; E 3.55; I 1.4; S 1.89; M 1.78; N 1.99; A 2.05; C 1.31; Q 2.52; L 1.6; T 1.92; K 2.17; D 3.27; R 1.64; F 1.93; P 1.87
I2: L 2.99; W 2.74; Y 3.4; D 4.79; G 4.24; C 2.27; A 2.59; F 3.65; V 1.1; K 4.42; H 2.59; M 3.7; Q 3.89; P 3.05; S 3.65; T 2.83; R 4.28; E 4.82; N 4.25
F1: S 4.96; W 3.74; E 4.81; L 4.34; M 4.6; I 3.98; K 4.61; P 4.56; C 4.46; H 4.56; N 4.45; V 4.52; R 4.38; D 5.07; A 4.65; T 4.76; Q 4.87; Y 2.54; G 4.86

Variants of: B2
Assay: as above
Settings: c terminus: a fixed tail appended

Protein stability index of substitutions, site by site:
F21: M 3.68; K 1.76; I 3.17; V 3.87; G 4.01; H 2.51; N 2.8; D 3.1; A 3.13; R 1.81; L 2.76; P 1.98; W 2.5; E 1.88; Y 2.14
V13: L 2.12; P 2.59; K 3.18; H 2.36; C 3.14; M 4.81; T 4.13; Y 2.62; A 1.41; E 2.5; S 2.92; G 2.42; R 3.01; W 1.82; Q 2.9; N 2.33; I 2.66
I8: F 2.48; R 2.17; N 1.89; E 1.98; Y 1.88; H 2.52; A 2.45; C 2.2; V 1.68; D 2.04; K 2.59; M 3.3; W 3.31; G 2.84; T 2.93; P 2.29; Q 2.41
F17: K 2.76; H 3.54; E 3.12; V 1.88; W 2.49; C 3.12; R 2.23; D 2.52; M 2.78; A 2.4; I 2.06; Q 2.41; G 3.57; S 2.33; T 2.9
V23: Y 3.03; G 3.05; C 2.47; M 1.75; L 2.62; H 3.18; S 2.44; K 3.66; R 3.19; Q 1.91; F 2.99; W 2.5; P 2.86; E 3.25; T 3.33; I 2.57; D 2.29
A12: N 3.15; I 1.96; D 3.75; M 2.2; H 2.83; L 3.63; T 1.6; C 2.29; R 2.33; P 2.73; E 2.31; V 2.57; G 2.92; F 2.55; Y 2.46; K 2.92; S 2.78; Q 2.37
V9: I 2.87; K 3.01; D 2.67; S 3.31; R 3.25; L 3.24; A 1.87; M 2.83; W 3.46; T 2.47; F 2.7; C 2.32; P 2.36; H 2.71; G 2.12; Q 2.73; Y 1.64; E 2.79
L20: E 1.65; G 1.26; R 1.77; N 3.15; D 3.54; Y 3.49; Q 2.37; K 1.89; P 2.49; W 1.9; S 2.6; H 3.28; A 3.27; M 2.63; V 2.42; I 1.74; F 2.97
N22: F 2.43; Q 2.84; P 2.1; R 2.69; G 2.71; H 2.8; L 2.42; T 4.37; D 3.27; I 3.19; M 3.79; S 2.72; A 2.86; C 2.31; K 1.9; Y 1.85; E 2.47
S14: K 2.65; L 2.6; V 2.49; A 2.36; P 2.55; H 3.58; F 2.8; R 1.41; M 3.96; G 2.17; Y 2.55; Q 1.94; I 2.88; D 2.17; T 2.95; N 3.59
H15: I 3.89; Q 2.78; C 3.87; F 2.06; V 3.1; S 2.82; T 1.92; Y 3.36; R 2.27; K 2.17; N 3.41; D 3.14; P 1.89
K24: N 4.04; P 3.35; W 2.42; M 2.27; Y 2.57; V 3.19; C 2.8; I 2.06; G 2.28; L 2.21; H 1.55; D 3.08; E 3.19; R 2.48; F 2.39; A 3.31; T 2.95
C11: V 3.24; T 1.99; D 2.13; G 2.26; P 2.8; F 1.94; Q 2.37; N 1.88; R 1.98; S 1.98; K 1.75; I 4.05; M 2.26; A 2.85; L 2.24; W 2.66; H 4.45; E 1.86
L19: P 2.31; W 3.11; D 3.41; I 3.67; Y 2.59; T 3.4; S 2.2; C 2.24; F 3.32; R 3.74; N 2.18; A 2.69; E 2.2; G 2.75
L10: N 3.5; I 2.64; D 2.5; P 1.82; G 3.06; A 1.75; R 1.64; Y 3.18; F 2.66; W 1.55; T 3.3; S 3.43; E 2.73; V 3.3; K 2.13
V16: A 2.97; E 3.26; R 2.79; S 3.16; F 2.99; P 3.16; Y 2.19; K 3.55; W 3.09; D 2.39; Q 3.14; T 3.44; L 2.43; H 2.98; M 2.3; I 2.65; N 3.11; C 3.59; G 3.44
M18: F 3.57; A 3.04; K 1.55; Y 2.5; N 3.02; H 2.34; G 2.75; E 2.48; Q 2.43; I 3.05; P 2.3; R 1.14; L 3.85; D 1.92; T 2.23; C 2.3; S 1.95
